These results are taken from publication PMC4039619.

Test [1] has as its target insulin from porcine pancreas (porcine).
In test [2] the target is recombinant human IGF-II (human). As to the kind of experiment: ELISA. On the technique in general: In an ELISA, binding on a coated surface is turned into a signal by an enzyme label.
Test [3] addresses human proinsulin (human). As to the kind of experiment: ELISA.
For test [4], the target named is insulin from porcine pancreas (porcine). Briefly: ELISA.
Sequence of insulin from porcine pancreas (porcine) (P01315 25-54, chain 1 of 2): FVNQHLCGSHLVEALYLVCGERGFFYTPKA
Sequence of insulin from porcine pancreas (porcine) (P01315 88-108, chain 2 of 2): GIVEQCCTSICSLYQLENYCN

The term Kd denotes the concentration at which binding is half-saturated.

Read-outs that look alike come from different tables or passages of the source.

Sequence of human recombinant decorin protein core (P07585 31-359): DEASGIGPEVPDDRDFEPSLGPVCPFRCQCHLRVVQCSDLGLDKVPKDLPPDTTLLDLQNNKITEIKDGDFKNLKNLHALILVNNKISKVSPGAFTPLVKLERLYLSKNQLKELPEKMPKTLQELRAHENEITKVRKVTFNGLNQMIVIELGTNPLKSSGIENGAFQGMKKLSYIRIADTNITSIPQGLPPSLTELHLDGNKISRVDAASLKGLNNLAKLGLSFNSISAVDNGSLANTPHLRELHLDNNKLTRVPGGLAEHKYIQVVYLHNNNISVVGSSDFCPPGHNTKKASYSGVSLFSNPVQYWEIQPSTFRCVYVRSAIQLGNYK
Sequence of recombinant human IGF-II (human) (P01344 25-91): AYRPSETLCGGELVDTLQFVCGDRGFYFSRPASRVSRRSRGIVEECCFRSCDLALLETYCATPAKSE
Sequence of decorin proteoglycan (P07585 31-359): as the sequence (P07585 31-359) above

As to “decorin proteoglycan (from UniProt P07585 31-359) (natural protein)”, the equilibrium dissociation constant (Kd) in test [1] is 13.4 nM.
With “human recombinant decorin protein core (from UniProt P07585 31-359) (natural protein)”, the Kd in test [2] turned out to be 1.5 nM; in test [3] it was 9.3 nM; in test [4], 3.1 nM.
